This note sets out measurements from patent US20090047262.

Data set [1] has as its system T1, FLAG epitope-tagged CIITA IF1 protein (f:CIITA1).
T1 sequence: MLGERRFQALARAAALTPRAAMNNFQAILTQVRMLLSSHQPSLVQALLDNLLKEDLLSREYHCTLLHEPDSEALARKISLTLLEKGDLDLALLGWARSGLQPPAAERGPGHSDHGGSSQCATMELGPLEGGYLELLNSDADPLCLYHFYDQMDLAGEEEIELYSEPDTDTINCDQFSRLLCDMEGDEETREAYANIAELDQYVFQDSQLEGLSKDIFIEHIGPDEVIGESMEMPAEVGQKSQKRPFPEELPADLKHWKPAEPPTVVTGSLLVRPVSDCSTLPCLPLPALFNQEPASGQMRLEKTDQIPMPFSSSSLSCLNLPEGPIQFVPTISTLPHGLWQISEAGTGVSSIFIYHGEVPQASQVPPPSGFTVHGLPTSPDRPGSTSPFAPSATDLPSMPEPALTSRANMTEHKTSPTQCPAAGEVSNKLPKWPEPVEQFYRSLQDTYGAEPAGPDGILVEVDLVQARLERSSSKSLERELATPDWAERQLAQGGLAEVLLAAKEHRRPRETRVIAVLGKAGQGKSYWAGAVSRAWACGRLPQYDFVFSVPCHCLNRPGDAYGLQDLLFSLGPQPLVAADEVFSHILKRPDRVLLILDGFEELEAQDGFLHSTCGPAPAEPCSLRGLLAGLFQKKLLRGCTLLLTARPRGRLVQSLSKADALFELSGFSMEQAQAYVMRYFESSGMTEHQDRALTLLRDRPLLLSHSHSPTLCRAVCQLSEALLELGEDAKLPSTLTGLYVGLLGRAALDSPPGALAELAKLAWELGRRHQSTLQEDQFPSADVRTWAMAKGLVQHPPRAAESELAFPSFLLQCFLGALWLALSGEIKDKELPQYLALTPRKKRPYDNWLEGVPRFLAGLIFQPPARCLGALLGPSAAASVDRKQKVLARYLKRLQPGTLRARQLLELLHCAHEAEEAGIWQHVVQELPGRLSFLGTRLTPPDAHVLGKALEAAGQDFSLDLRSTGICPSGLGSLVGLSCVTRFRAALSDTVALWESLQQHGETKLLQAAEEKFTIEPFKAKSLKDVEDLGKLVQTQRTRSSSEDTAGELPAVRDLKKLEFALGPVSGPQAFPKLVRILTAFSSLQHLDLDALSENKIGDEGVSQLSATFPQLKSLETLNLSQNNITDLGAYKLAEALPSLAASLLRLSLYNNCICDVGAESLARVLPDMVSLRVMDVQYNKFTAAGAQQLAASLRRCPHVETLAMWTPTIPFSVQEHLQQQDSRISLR

Data set [2] has as its system mutant f:CIITA1(S357A) protein (FLAG epitope-tagged CIITA isoform 1 with serine 357 changed to alanine).

Turning to Erk1/2 kinase, the “in vitro kinase assay, appearance of the upper (phosphorylated) band” value in data set [1] was “as indicated by the appearance of the upper band, Erk1/2 phosphorylated f:CIITA1 protein”; in data set [2], “Erk1/2 did not phosphorylate the mutant f:CIITA1(S357A) protein, which was confirmed by the absence of the upper band”.
